Results taken from patent US20250115663A1 (CELLDEX THERAPEUTICS, published 2025).

Tests used:
[1] = target: T1, kappa-sCD40-Flag fusion protein, fragment amino acids 36-130 (human, UniProt P25942 56-150); assay: ELISA, kappa-sCD40-Flag fusion (~1 ug/ml) captured on anti-Flag, anti-human IgG Fc-HRP
T1 construct: not shown: N-terminal human kappa light chain; C-terminal Flag tag
Method: (§1) 1 μg/ml of purified kappa-sCD40-Flag fusion proteins or CHO cell supernatants containing the sCD40 fusion proteins were captured to microtiter plates that were pre-coated with 5 μg/ml mouse anti-Flag antibody (Sigma) in PBS and blocked with 5% bovine serum albumin in PBS. Following incubation with the CD40 antibody, the microplates were washed with PBS/Tween, and incubated with a goat anti-human IgG Fc polyclonal reagent conjugated to horseradish peroxidase. After washing, the plates were developed with HRP substrate, and analyzed at OD 450-650 using a microtiter plate reader. An ELISA with a goat anti-human IgG Fab2-HRP to measure kappa chain binding was carried out in parallel to validate the sCD40 fusion protein expression from different transfections.

[2] = target: T2, kappa-sCD40-Flag fusion protein, fragment amino acids 1-94 (human, UniProt P25942 21-114); assay: as above
T2 construct: also called sCD40aa 1-94; not shown: N-terminal human kappa light chain; C-terminal Flag tag
Method: as §1

[3] = target: T3, kappa-sCD40-Flag fusion protein, fragment amino acids 84-173 (human, UniProt P25942 104-193); assay: as above
T3 construct: not shown: N-terminal human kappa light chain; C-terminal Flag tag
T3 sequence (P25942 104-193): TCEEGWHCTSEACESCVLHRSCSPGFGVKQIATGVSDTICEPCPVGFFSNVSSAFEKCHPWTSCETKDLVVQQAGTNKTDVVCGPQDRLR
Method: as §1

[4] = target: T4, kappa-sCD40-Flag fusion protein, full length ECD amino acid residues 1-173 (human, UniProt P25942 21-193); assay: as above
T4 construct: also called full length sCD40; not shown: N-terminal human kappa light chain; C-terminal Flag tag
T4 sequence (P25942 21-193): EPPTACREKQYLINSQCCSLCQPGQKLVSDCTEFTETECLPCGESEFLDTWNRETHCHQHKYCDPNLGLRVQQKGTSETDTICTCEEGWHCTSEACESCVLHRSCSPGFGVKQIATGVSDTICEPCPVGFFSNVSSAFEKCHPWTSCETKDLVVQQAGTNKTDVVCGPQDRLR
Method: as §1

[5] = target: T5, kappa-sCD40(1-94)-Flag mutant fragment B (multiple mutations of residues 13-15); assay: ELISA, kappa-sCD40-Flag fusion captured on anti-Flag, anti-human IgG Fc-HRP
T5 construct: also called B (13-15)
Method: as §1

[6] = target: T6, kappa-sCD40(1-94)-Flag mutant fragment A (multiple mutations of residues 1-5) (human, UniProt P25942 26-114); assay: as above
T6 construct: The text says only multiple mutations of residues 1-5 (human to mouse differences); that mutant A carries exactly these is inferred; also called A (1-5); not shown: N-terminal human kappa light chain; C-terminal Flag tag
Method: as §1

[7] = target: T7, kappa-sCD40(1-94)-Flag mutant fragment C (multiple mutations of residues 25, 26, 28 and 30); assay: as above
T7 construct: also called C (25, 26, 28, 30)
Method: as §1

[8] = target: T8, kappa-sCD40(1-94)-Flag mutant fragment D (multiple mutations of residues 33-36) (human, UniProt P25942 21-114); assay: as above
T8 construct: The text says only multiple mutations of residues 33-36 (human to mouse differences); that mutant D carries exactly these is inferred; also called D (33-36); not shown: N-terminal human kappa light chain; C-terminal Flag tag
T8 chain: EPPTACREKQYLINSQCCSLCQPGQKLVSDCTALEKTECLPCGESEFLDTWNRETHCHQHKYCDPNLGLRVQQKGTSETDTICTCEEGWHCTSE
Method: as §1

[9] = target: T3, kappa-sCD40-Flag fusion protein, …; assay: ELISA, kappa-sCD40-Flag fragment captured on anti-Flag
Method: as §1

[10] = target: T5, kappa-sCD40(1-94)-Flag mutant fragment …; assay: ELISA, kappa-sCD40-Flag fusion captured on anti-Flag, anti-human IgG Fc-HRP; remark: listed apart in the source
[11] = target: T7, kappa-sCD40(1-94)-Flag mutant fragment …; assay: as above; remark: listed apart in the source
[12] = target: T9, kappa-sCD40(1-94)-Flag point mutant P2Q (human, UniProt P25942 21-114); assay: as above
T9 construct: not shown: N-terminal human kappa light chain; C-terminal Flag tag
T9 chain: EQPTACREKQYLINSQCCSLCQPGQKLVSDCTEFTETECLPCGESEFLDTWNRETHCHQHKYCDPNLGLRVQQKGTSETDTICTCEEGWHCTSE

[13] = target: T10, soluble human CD40-MsIgG2a (human, UniProt P25942); assay: BLI (Octet QKe), antibody captured on anti-human Fc (AHC) biosensors, analyte soluble human CD40-MsIgG2a 3.13 to 0.098 nM, 25 C, 1:1 fit; column head kdis(1/s)
T10 construct: soluble, fused to mouse IgG2a; also called recombinant human CD40-msG2a chimeric protein; CD40-MsIgG2a (Celldex, 60 kD by SDS-PAGE)
T10 sequence (P25942 21-193 limits assumed): as the sequence (P25942 21-193) above
Method: Purified antibodies from Example 1 were captured on Anti-Human Fc Capture (AHC) biosensors (Fortebio Product No. 18-5060). Each antibody was prepared in dilution buffer (10mMPO4+150 mM NaCl+1 mg/mL BSA+0.5% Tween 20, pH 7.2) to 0.5 μg/mL and loaded on freshly hydrated AHC biosensors for 35-50 sec at 25° C. and 1000 rpm plate shake speed to achieve a target response of 0.2 nm. Low levels of ligand were captured to limit any effects of mass transport of analyte on kinetic parameters. For one assay, eight biosensors were loaded with the same antibody.
Binding was determined by exposing six of the antibody loaded biosensors to analyte: soluble human CD40-MsIgG2a (Celldex, 60 kD by SDS-PAGE). Affinity measurements were determined using 2-fold serial dilutions of analyte ranging from 3.13 to 0.098 nM in dilution buffer at 25° C. and 1000 rpm plate shake speed. Association of the antibody loaded biosensors in analyte wells was carried out for 1200 seconds, the biosensors were then moved to dilution buffer wells for 2.5 hrs (9000 sec) for dissociation measurements.
Fortebio's Data Analysis Software version 8.2.0.7 (Pall ForteBio, Menlo Park, CA) was used in each case to derive kinetic parameters from the concentration series of analyte in dilution buffer binding to captured antibody. The association and dissociation curves were fitted to a 1:1 binding model using the data analysis software according to the manufacturer's guidelines.

T1 sequence (P25942 56-150): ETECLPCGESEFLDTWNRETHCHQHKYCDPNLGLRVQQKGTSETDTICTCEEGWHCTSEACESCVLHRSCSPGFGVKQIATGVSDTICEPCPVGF

B1: anti-CD40 human monoclonal antibody 3C3 (antibody, human IgG2, kappa, V domains shown)
VH: QVQLVESGGGVVQPGRSLRLSCAGSGFIFSRYGMYWVRQAPGKGLEWVAVIWYDGSYKYYADSVKGRFTISRDNSKNTLYLQMNSLRAEDTAVYYCARESPWYYFDYWGQGTLVTVSS
VL: DIQMTQSPSSLSASVGDRVTITCRASQGISNYLAWYQQKPGKVPKLLIYAASTLQSGVPSRFSGSGSGTDFTLTISSLQPEDVATYYCQKYKSAPFTFGPGTKVDIKR
notes: Human IgG2, C-terminal lysine removed; also called anti-CD40 mAb 3C3; CD40 antibody 3C3
Average OD [1]: 0.024 OD 450-650 | Average OD [2]: 1.8 OD 450-650 | Average OD [3]: 0.024 OD 450-650 | Average OD [4]: 1.26 OD 450-650 | Average OD [5]: 2.03 OD 450-650 | Average OD [6]: 0.189 OD 450-650 | Average OD [7]: 1.49 OD 450-650 | Average OD [8]: 0.092 OD 450-650 | binding result [9]: no binding (tested: ~1 ug/ml fragment) | OD [10]: 2.38 OD 450-650 | OD [11]: 2.02 OD 450-650 | OD [12]: 2.2 OD 450-650 | koff [13]: 8.67e-06 s⁻¹
